The text below walks through data of publication PMC12599251.

For experiment [1], the target named is Human Hsp90β (heat shock protein 90 beta), wild type (human) (UniProt P08238). Briefly: AUC; sedimentation velocity, 42,000 rpm, 20°C, 11-15 uM protein, absorbance at 280 nm, continuous c(S) distribution (SEDFIT); peroxynitrite-treated samples dialyzed beforehand.
Experiment [2] has the same target. Briefly: native gel or EMSA; native PAGE: 20 ug protein (1 mg/ml) on 4-20% polyacrylamide gels in native loading buffer (Tris pH 6.8, 50% glycerol); directly after purification and after incubation at 4°C or 25°C in PBS pH 7.4 for up to 48 h.
The target in experiment [3] is Human Hsp90β treated with 0.5 mM peroxynitrite (human) (UniProt P08238). Briefly: AUC; sedimentation velocity, 42,000 rpm, 20°C, 11-15 uM protein, absorbance at 280 nm, continuous c(S) distribution (SEDFIT); peroxynitrite-treated samples dialyzed beforehand.
The target in experiment [4] is Human Hsp90β with 3-nitrotyrosine at position 33 (human) (UniProt P08238). Described as above.
Experiment [5] shares this target. The experiment is described as above. This is another data set of the same source.
Experiment [6] has the same target. The experiment is described as follows: native gel or EMSA; native PAGE: 20 ug protein (1 mg/ml) on 4-20% polyacrylamide gels in native loading buffer (Tris pH 6.8, 50% glycerol); directly after purification and after incubation at 4°C or 25°C in PBS pH 7.4 for up to 48 h.
The target of experiment [7] is Human Hsp90β with 3-nitrotyrosine at position 56 (human) (UniProt P08238). Briefly: AUC; sedimentation velocity, 42,000 rpm, 20°C, 11-15 uM protein, absorbance at 280 nm, continuous c(S) distribution (SEDFIT); peroxynitrite-treated samples dialyzed beforehand.
The target is the same in experiment [8]. The experiment is described as follows: native gel or EMSA; native PAGE: 20 ug protein (1 mg/ml) on 4-20% polyacrylamide gels in native loading buffer (Tris pH 6.8, 50% glycerol); directly after purification and after incubation at 4°C or 25°C in PBS pH 7.4 for up to 48 h.
The target of experiment [9] is Human Hsp90β with 3-nitrotyrosine at positions 33 and 56 (human) (UniProt P08238). The experiment is described as follows: AUC; sedimentation velocity, 42,000 rpm, 20°C, 11-15 uM protein, absorbance at 280 nm, continuous c(S) distribution (SEDFIT); peroxynitrite-treated samples dialyzed beforehand.

Several values for one entry are separate records, joined by “and”; a condition that tells them apart may be missing. Identical values can stand only once.

Human Hsp90β (heat shock protein 90 beta), wild type, P08238 1-724 (natural protein; other documents disagree on this pair), sequence (P08238 whole entry): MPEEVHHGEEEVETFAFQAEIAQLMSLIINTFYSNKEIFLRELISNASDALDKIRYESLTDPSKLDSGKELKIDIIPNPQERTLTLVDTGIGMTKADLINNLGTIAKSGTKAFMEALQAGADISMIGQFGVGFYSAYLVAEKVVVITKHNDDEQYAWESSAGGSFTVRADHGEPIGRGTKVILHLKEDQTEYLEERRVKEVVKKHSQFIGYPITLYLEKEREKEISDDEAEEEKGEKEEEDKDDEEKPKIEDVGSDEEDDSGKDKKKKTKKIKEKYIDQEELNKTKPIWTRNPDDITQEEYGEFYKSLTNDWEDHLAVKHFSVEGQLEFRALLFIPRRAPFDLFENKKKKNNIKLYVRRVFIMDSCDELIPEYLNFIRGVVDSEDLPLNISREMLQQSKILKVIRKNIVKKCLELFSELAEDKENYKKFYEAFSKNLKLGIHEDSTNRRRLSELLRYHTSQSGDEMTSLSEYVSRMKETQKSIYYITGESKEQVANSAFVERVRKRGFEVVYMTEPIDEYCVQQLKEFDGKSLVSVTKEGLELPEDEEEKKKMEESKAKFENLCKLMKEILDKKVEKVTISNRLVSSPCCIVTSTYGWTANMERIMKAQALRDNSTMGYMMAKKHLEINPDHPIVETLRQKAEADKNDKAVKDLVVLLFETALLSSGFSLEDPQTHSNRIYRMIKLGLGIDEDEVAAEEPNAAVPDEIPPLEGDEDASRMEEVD
Human Hsp90β with 3-nitrotyrosine at positions 33 and 56, P08238 1-724 (natural protein; 3-nitrotyrosine at 33 and at 56 (sole oxidative modifications); 3-nitrotyrosine at 33 and at 56 (sole oxidative, sequence (P08238 whole entry): as above

For “Human Hsp90β (heat shock protein 90 beta), wild type, P08238 1-724 (natural protein; other documents disagree on this pair)”, the stoichiometry N in experiment [1] and in experiment [2] was 2 each time.

As for “Human Hsp90β treated with 0.5 mM peroxynitrite, P08238 1-724 (natural protein; nitration of Y33, Y56, Y276, Y484 and Y596 after treatment with 0.5 mM peroxynitrite; nitration of Y33, Y56, Y276, Y484 and Y596 after treatment with 0.5 mM peroxynitrite; other documents disagree on this pair)”, the stoichiometry N in [3] is 2 and 4.

In the case of “Human Hsp90β with 3-nitrotyrosine at position 33, P08238 1-724 (natural protein; 3-nitrotyrosine at 33 (sole oxidative modification); 3-nitrotyrosine at 33 (sole oxidative modification); other documents disagree on this pair)”, the stoichiometry N in experiment [4] stood at 2; in experiment [5], 6; in experiment [6], 2.

As to “Human Hsp90β with 3-nitrotyrosine at position 56, P08238 1-724 (natural protein; 3-nitrotyrosine at 56 (sole oxidative modification); 3-nitrotyrosine at 56 (sole oxidative modification); other documents disagree on this pair)”, the stoichiometry N in experiment [7] and in experiment [8] was 2 each time.

“Human Hsp90β with 3-nitrotyrosine at positions 33 and 56, P08238 1-724 (natural protein; 3-nitrotyrosine at 33 and at 56 (sole oxidative modifications); 3-nitrotyrosine at 33 and at 56 (sole oxidative modifications); other documents disagree on this pair)”: the stoichiometry N in experiment [9] was 2 and 6.
